Drawing on patent US12247072, this text covers Binding to KLH (A450 normalised to buffer control) for one substance.

Experiment [1] deals with keyhole limpet hemocyanin. Briefly: polyreactivity ELISA.
Experiment [2] addresses keyhole limpet hemocyanin. Kind of experiment: polyreactivity ELISA. This is another data set of the same source.

Where two headings read alike, the source gives them in different places.

With Bococizumab (antibody), the Binding to KLH (A450 normalised to buffer control) is 24.4 in experiment [1] and 47.1 in experiment [2].
